Measurements: patent publication US12491255 (ARO BIOTHERAPEUTICS, dated 2025)

B1: EpCAM binding FN3 domain clone 1807 (designed binder)
chain: MLPAPKNLVVSRVTEDSARLSWTAPDAAFDSFYIRYYEGSGYGEAIVLTVPGSERSYDLTGLKPGTEYYVYIGGVKGGSPSSPLSAIFTTG
notes: not shown: No entry is named H9
B2: EpCAM FN3 domain-MMAF conjugate of clone 639 (designed binder)
chain: MLPAPKNLVVSRVTEDSARLSWTAPDAAFDSFSISYRERSAWGEAIALVVPGSERSYDLTGLKPGIEYIVGIIGVKGGLRSNPLRADFTT
modifications: VC-MMAF (maleimide) on a cysteine; position of the cysteine not stated
B3: EpCAM binding FN3 domain clone 639 (designed binder)
chain: MLPAPKNLVVSRVTEDSARLSWTAPDAAFDSFSISYRERSAWGEAIALVVPGSERSYDLTGLKPGIEYIVGIIGVKGGLRSNPLRADFTT
notes: as for B1
B4: EpCAM binding FN3 domain clone 1874 (designed binder)
chain: MLPAPKNLVVSRVTEDSARLSWTAPDAAFDSFKIGYWEWRKYGEAIELNVPGSERSYDLTGLKPGTEYRVLIYGVKGGAGSHPLRALFTT
notes: as for B1
B5: EpCAM FN3 domain-MMAF conjugate of clone 680 (designed binder)
chain: MLPAPKNLVVSRVTEDSARLSWTAPYAAFDSFAISYRERSREGEVIALTVPGSERSYDLTGLKPGTEYIVGILGVKGGRRSKPLRAQFTT
modifications: VC-MMAF (maleimide) on a cysteine; position of the cysteine not stated
B6: EpCAM binding FN3 domain clone 680 (designed binder)
chain: MLPAPKNLVVSRVTEDSARLSWTAPYAAFDSFAISYRERSREGEVIALTVPGSERSYDLTGLKPGTEYIVGILGVKGGRRSKPLRAQFTT
notes: as for B1
B7: EpCAM binding FN3 domain clone 1420 (designed binder)
chain: MLPAPKNLVVSRVTEDSARLSWEGYRNNAHFDSFLIQYQESEKVGEAIVLTVPGSERSYDLTGLKPGTEYTVSIYGVVAAVPRNYYSNPLSAIFTT
notes: as for B1

Key:
[1] = target: T1, human EpCAM on COLO-205 cells (human, UniProt P16422 24-314); assay: flow cytometry, periplasmic extract of soluble Centyrin on COLO-205 (EpCAM+) cells
T1 construct: whole, on cells; Endogenous EpCAM of the EpCAM-positive cell line COLO-205; also called epithelial cell adhesion molecule; Colo205 (EpCAM+)
T1 sequence (looked up): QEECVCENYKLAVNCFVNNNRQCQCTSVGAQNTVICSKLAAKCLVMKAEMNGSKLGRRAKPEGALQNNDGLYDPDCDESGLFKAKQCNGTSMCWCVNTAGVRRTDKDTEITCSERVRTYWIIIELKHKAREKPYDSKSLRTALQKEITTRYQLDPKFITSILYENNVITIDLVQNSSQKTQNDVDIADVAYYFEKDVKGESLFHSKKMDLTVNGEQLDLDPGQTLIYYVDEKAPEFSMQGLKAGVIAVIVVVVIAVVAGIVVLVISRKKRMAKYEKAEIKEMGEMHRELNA
Description: (§1) Three rounds of CIS display panning on recombinant huEpCAM protein (R&D Systems) were performed using TCL23 as described previously. The output from Round 3 was amplified and cloned into phagemid vector containing truncated pIII. An additional 4 rounds of selection on recombinant protein human EpCAM and Colo 205 (positive cells) with negative selection on A375 (negative cells) was performed. After 4 rounds of selection on recombinant protein and Colo 205 cells, 96 individual clones were assayed for binding to Colo 205 cells by phage ELISA; EpCAM negative cells (A375) were used as a negative control. Phage binding was assessed using a labeled anti-M13 antibody. Clones that were positive by phage ELISA were subcloned into a bispecific Centyrin expression plasmid where the carboxy terminal domain was an albumin binding Centyrin (H9). Soluble Centyrins were expressed, recovered from periplasmic extracts and assessed for binding to Colo205 (EpCAM+) and A375 (EpCAM-) (Table 4).

[2] = target: T1, human EpCAM on COLO-205 cells; assay: flow cytometry, ratio of the signal on COLO-205 (EpCAM+) to that on A375 (EpCAM-) cells
Description: as §1

[3] = target: T1, human EpCAM on COLO-205 cells; assay: cell-based or functional assay

Binder | Mean BL-1 P.E. COLO-205 [1] | COLO-205/A375 [2] | IC50 of EpCAM FN3 domain-MMAF conjugate molecules in COLO-205 Cells (cell viability, Cell TiterGlo, 72 hours) [3]
B1 | 12900 | 4.4 | 
B2 |  |  | 2.2 nM
B3 | 10100 | 11 | 
B4 | 27100 | 12.1 | 
B5 |  |  | 0.11 nM
B6 | 10400 | 11.9 | 
B7 | 22600 | 25.8 | 
